Test results from publication PMC7072391.

Target: tropomyosin receptor kinase A (TrkA) (rat (endogenous in primary septal cholinergic neurons)) (UniProt P35739)
Sequence of UniProt P35739 (P35739 33-799): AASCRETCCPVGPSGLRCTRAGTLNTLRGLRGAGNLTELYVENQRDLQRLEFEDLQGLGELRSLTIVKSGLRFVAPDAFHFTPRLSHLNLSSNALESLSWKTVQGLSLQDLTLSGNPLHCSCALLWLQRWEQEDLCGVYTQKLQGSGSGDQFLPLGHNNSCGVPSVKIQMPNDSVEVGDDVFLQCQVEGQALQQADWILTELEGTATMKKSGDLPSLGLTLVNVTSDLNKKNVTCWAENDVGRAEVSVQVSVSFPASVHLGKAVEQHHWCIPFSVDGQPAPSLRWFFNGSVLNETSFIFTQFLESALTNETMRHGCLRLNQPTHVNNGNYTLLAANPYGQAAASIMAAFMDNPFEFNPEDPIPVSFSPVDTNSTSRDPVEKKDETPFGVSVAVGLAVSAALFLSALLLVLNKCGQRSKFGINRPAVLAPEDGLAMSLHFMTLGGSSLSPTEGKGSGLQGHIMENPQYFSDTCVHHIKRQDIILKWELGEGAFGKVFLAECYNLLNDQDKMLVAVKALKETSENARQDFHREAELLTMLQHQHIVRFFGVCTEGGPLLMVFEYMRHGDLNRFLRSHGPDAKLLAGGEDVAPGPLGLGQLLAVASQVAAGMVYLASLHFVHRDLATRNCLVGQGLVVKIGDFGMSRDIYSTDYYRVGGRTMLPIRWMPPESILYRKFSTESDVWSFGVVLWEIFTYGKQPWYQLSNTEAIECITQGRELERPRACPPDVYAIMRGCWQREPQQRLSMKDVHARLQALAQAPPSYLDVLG

| pTrkA (Y490) level by western blot, cholinergic neurons treated 7′ with 10 μM peptide | pTrkA (Y490) level by western blot, cholinergic neurons treated 7′ with 100 ng/mL (3.84 nM) NGF | Substance |
| --- | --- | --- |
| 296 % of CTR | – | acetylated monomer Ac-hNGF1–14 peptide |
| – | 161 % of CTR | Nerve Growth Factor (NGF), murine (from UniProt P01139 122-241) (ligand) |
| 155 % of CTR | – | hNGF1–15 dimer (peptide) |
| 153 % of CTR | – | human NGF 1–14 sequence, monomeric hNGF1–14 peptide |
